According to patent publication US20250145716A1 (RAKUTEN MEDICAL, published 2025):
Read-outs that look alike come from different tables or passages of the source. One block for each binder: values may come before it.

How the values were obtained:
[1] = biological target: T1, human PD-L1 expressed on cells (human, UniProt Q9NZQ7 19-290); experiment: flow cytometry on unstimulated A431 cells, ratio of EC50 values
T1 construct: whole, on cells; One entry covers all human PD-L1-bearing cells; also called huPD-L1 on CHO cells (CHO-hPD-L1); PD-L1 on A431 cells
Experimental: (§1) Approximately 2.5×10⁵ A431 squamous cell carcinoma cells were plated in a final volume of 50 μL FACS buffer (phosphate buffered saline, 1% fetal bovine serum, 5 mM EDTA) in 96-well plates. 50 μL 2× Zombie Violet (BioLegend) were added to each well, and the plates were incubated 20-30 minutes at room temperature, protected from light. After incubation, 150 μL FACS buffer were added to each well. The plates were centrifuged at 500×g for 5 minutes. The supernatant was removed, and the cell pellet were resuspended in 200 μL FACS buffer. The wash procedure was repeated for a total of 2-3 washes. […] After the cells were incubated with the primary anti-PD-L1 antibody 1 hour on ice, protected from light, 150 μL FACS buffer were added to each well. The plates were then centrifuged, the supernatant was removed, and the cells were resuspended in 250 μL FACS buffer three times. After the third wash, the cells were resuspended in 100 μL goat anti-human IgG-Alexa Fluor 488 secondary antibody, and incubated for 30 minutes on ice, protected from light. After 3 washes as previously described, the cells were resuspended in 200 μL FACS buffer. The cells were then analyzed using a CytoFLEX flow cytometer.

6xHis-tagged cyPD-L1 [2] = biological target: T2, 6xHis-tagged cyPD-L1 (cynomolgus monkey, UniProt Q9NZQ7 19-238 (human entry)); experiment: ELISA, plate-coated 6xHis cyPD-L1, OD 450 nm
T2 construct: The assay text says only '6xHis-tagged cyPD-L1'; also called cynomolgus PD-L1; not shown: 6xHis tag
Experimental: (§2) Hybridoma supernatants were tested for binding to huPD-L1, cyPD-L1, and muPD-L1 by ELISA. Briefly, 30 μL 6xHis-tagged huPD-L1, cyPD-L1, or muPD-L1 (1 μg/mL in PBS) were immobilized in wells of a 96-well assay plate overnight at 4° C. After washing and blocking steps, 30 μL of antibody supernatant were added to the plate and incubated at room temperature for 1 hr. Bound human antibody was detected using horseradish peroxidase (HRP)-conjugated goat anti-human Fc (Invitrogen Cat. No. 109-035-097; diluted 1:5000) or goat anti-mouse Fc HRP (Invitrogen Cat. No. 115-035-071) as a control. Bound antibody was detected with 1-Step Ultra™ TMB-ELISA Substrate (ThermoFisher Scientific Cat. No. 34029). When the reaction was complete the reaction was stopped, and the plate was read at 450 nm.

[3] = biological target: T1, human PD-L1 expressed on cells; experiment: flow cytometry, IFN-γ-stimulated A431 cells, MFI (FITC)
[4] = biological target: T1, human PD-L1 expressed on cells; experiment: cell-based or functional assay
[5] = biological target: T1, human PD-L1 expressed on cells; experiment: flow cytometry on unstimulated A431 cells, 10 conjugate concentrations
Experimental: as §1

[6] = biological target: T3, PD-L1-His (Acro Cat PDL-H5229) (human, UniProt Q9NZQ7 19-238); experiment: SPR (Biacore 4000) as in Example 3, conjugate captured, PD-L1-His analyte, 37° C.
T3 construct: also called human PD-L1 (SPR analyte); not shown: His tag
Experimental: (§3) The binding affinities of the generated antibodies to human PD-L1 were determined by surface plasmon resonance. […] PD-L1-His (Acro Cat PDL-H5229) was tested for binding in a 3-fold titration series up to 100 nM. Data were collected in HBS-P (pH 7.4) at 37° C. and 25° C.
(§4) The binding affinities of the generated anti-PD-L1 conjugates were determined by surface plasmon resonance, as described in Example 3.

[7] = biological target: T1, human PD-L1 expressed on cells; experiment: flow cytometry, IFN-γ-stimulated BxPC3 cells, MFI (FITC)
6xHis-tagged huPD-L1 [8] = biological target: T4, 6xHis-tagged huPD-L1 (human, UniProt Q9NZQ7 19-238); experiment: ELISA, plate-coated 6xHis huPD-L1, OD 450 nm
T4 construct: also called human PD-L1 (RD Systems 9049-B7); extracellular domain of human PD-L1 fused to a His tag; not shown: 6xHis tag
Experimental: as §2

[9] = biological target: T1, human PD-L1 expressed on cells; experiment: cell-based or functional assay; remark: listed apart in the source
[10] = biological target: T1, human PD-L1 expressed on cells; experiment: flow cytometry, CHO-hPD-L1 cells, MFI (FITC)
[11] = biological target: T3, PD-L1-His (Acro Cat PDL-H5229); experiment: SPR (Biacore 4000) as in Example 3, conjugate captured, PD-L1-His analyte, 25° C.
Experimental: as §3, §4

[12] = biological target: T1, human PD-L1 expressed on cells; experiment: flow cytometry, PD-L1-expressing CHO cells, MFI (FITC)
Experimental: Wild-type (wt) Chinese hamster ovary (CHO) cells (ATCC) and CHO cells engineered to express huPD-L1 (BPS Bioscience) were seeded at 200,000 cells in 50 μL FACS buffer (PBS containing 1% FBS and 5 mM EDTA) per well of a 96-well plate. Cell viability was assessed by adding 50 μL 2×Zombie Violet (BioLegend). Dead cell controls were also prepared and 2×Zombie violet was added. After incubating 20-30 minutes at room temperature, protected from light, 150 μL FACS buffer were added to each well. The plates were centrifuged, and the supernatant was aspirated. […] The plates were incubated 30 minutes on ice, protected from light. 150 μL FACS buffer were then added to each well and the plate was centrifuged. The supernatant was removed and the cells were washed three times in 200 μL FACS buffer. […] The cells were incubated 30 minutes on ice, protected from light. 150 μL FACS buffer were then added to each well and the plate was centrifuged. Supernatant was removed and the cells were washed twice with 200 μL FACS buffer. The cells were then resuspended in FACS buffer and analyzed by CytoFLEX using the appropriate channels. After gating for whole, single, live cells, the MFI in the APC channel (or FITC channel for human control samples) was normalized to the signal from hybridoma media alone (or isotype control for human control). MFI fold over media alone was determined for each clone supernatant tested.

[13] = biological target: T3, PD-L1-His (Acro Cat PDL-H5229); experiment: SPR (Biacore 4000), antibody captured on anti-human CM4 chip, PD-L1-His analyte, 37° C.
Experimental: as §3

[14] = biological target: T5, human PD-L2 (RD Systems 9075-PL) (human, UniProt Q9BQ51 20-219); experiment: ELISA, plate-coated human PD-L2 (1 µg/mL), OD 450 nm, B7 ligand specificity panel
T5 sequence (looked up): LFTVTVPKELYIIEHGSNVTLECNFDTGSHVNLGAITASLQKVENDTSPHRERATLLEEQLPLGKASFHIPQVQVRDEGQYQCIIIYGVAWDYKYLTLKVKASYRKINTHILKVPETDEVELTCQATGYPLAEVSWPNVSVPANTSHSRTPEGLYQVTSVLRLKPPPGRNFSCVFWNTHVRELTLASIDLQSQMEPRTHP
Experimental: as §2
(§5) Briefly, wells of a 96-well plate (Corning 3690) were incubated with 30 μL human PD-L1 (RD Systems 9049-B7), human PD-L2 (RD Systems 9075-PL), human B7-1/CD80 (RD Systems 9050-B1), human B7-2/CD86 (RD Systems 9090-B2), human B7-H2 (RD Systems 8206-B7), or human B7-H3 (RD Systems 1949-B3), at a concentration of 1 μg/mL in PBS, overnight at 4C, to coat the wells with ligand. After washing and blocking steps, 30 μL of antibody at 8 concentrations ranging from 1 ng/mL to 3 mg/mL were added to the plate and incubated at room temperature for 1 hr. Bound human antibody was detected as described above.

[15] = biological target: T1, human PD-L1 expressed on cells; experiment: flow cytometry on unstimulated A431 cells (MFI against antibody concentration)
Experimental: as §1

6xHis-tagged huPD-L1 [16] = biological target: T4, 6xHis-tagged huPD-L1; experiment: ELISA, plate-coated human PD-L1 (1 µg/mL), OD 450 nm, B7 ligand specificity panel
Experimental: as §2, §5

6xHis-tagged huPD-L1 [17] = biological target: T4, 6xHis-tagged huPD-L1; experiment: ELISA, plate-coated 6xHis huPD-L1, OD 450 nm; remark: listed apart in the source
Experimental: as §2
(§6) Anti-PD-L1 antibodies, described in Example 1A and manufactured substantially as described in Example 1B, were tested for to huPD-L1 and cyPD-L1 by ELISA substantially as described in Example 1A, using 12 dilutions of antibody ranging from 1 ng/ml to 3 mg/mL.

[18] = biological target: T1, human PD-L1 expressed on cells; experiment: cell-based or functional assay; remark: listed apart in the source
[19] = biological target: T3, PD-L1-His (Acro Cat PDL-H5229); experiment: SPR (Biacore 4000), antibody captured on anti-human CM4 chip, PD-L1-His analyte, 25° C.
Experimental: as §3

6xHis-tagged cyPD-L1 [20] = biological target: T2, 6xHis-tagged cyPD-L1; experiment: ELISA, plate-coated 6xHis cyPD-L1, OD 450 nm; remark: listed apart in the source
Experimental: as §2, §6

T1 sequence (Q9NZQ7 19-290): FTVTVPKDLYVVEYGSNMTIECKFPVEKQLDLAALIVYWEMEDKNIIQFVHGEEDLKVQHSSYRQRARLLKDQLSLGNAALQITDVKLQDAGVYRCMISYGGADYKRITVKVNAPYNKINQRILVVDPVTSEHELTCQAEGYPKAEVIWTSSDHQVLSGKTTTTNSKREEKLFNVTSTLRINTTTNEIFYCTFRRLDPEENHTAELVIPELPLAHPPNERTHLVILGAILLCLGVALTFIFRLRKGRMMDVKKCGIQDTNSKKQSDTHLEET
T4 sequence (Q9NZQ7 19-238): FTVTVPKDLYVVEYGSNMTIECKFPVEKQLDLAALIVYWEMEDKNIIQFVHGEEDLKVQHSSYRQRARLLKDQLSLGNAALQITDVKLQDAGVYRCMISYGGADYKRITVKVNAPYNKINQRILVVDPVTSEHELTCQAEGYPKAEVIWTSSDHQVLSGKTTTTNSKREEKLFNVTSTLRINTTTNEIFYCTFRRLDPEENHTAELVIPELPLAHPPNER
T3 sequence (Q9NZQ7 19-238 limits assumed): as the sequence (Q9NZQ7 19-238) above
T2 sequence (Q9NZQ7 other isoform, or with tags, fused parts or gaps): as the sequence (Q9NZQ7 19-238) above, with A33T, A34S, S62N, R68Q, Q82R, F173L, T185A, T192I, H215L counted along it

fold potency against avelumab-IR700 [1]: ~23 fold
EC50 (6xHis-tagged cyPD-L1 [2]): 0.0542 mg/L
EC50 [3]: 0.046 mg/L
EC50 [5]: 0.0129 mg/L
Kd [6]: 0.97 nM
koff [6]: 0.00038 s⁻¹
kon [6]: 390000 M⁻¹ s⁻¹
EC50 [7]: 0.0439 mg/L
EC50 (6xHis-tagged huPD-L1 [8]): 0.0636 mg/L
EC50 of luminescence (RLU), PD-1:PD-L1 Blockade Bioassay (PD-L1 aAPC/CHO-K1 cells with PD-1 Effector Jurkat NFAT-luciferase cells) [9]: 0.161 mg/L
EC50 [10]: 0.0151 mg/L
Kd [11]: 0.26 nM
koff [11]: 5.4e-05 s⁻¹
kon [11]: 210000 M⁻¹ s⁻¹
EC50 [12]: 0.0156 mg/L
B1: 1P9-IR700 (antibody, V domains shown)
VH: EVQLVESGGGLVQPGGSLRLSCAASGFTFSTYWMSWVRQAPGKGLEWVANIKQDGGERYYVDSVKGRFTISRDNAKSSLYLQMNSLRAEDTALYYCARLRLYSDYEDYWGQGTLVTVSS
VL: DIQMTQSPSSVSASVGDRVTITCRASQGISSWLAWYQQKPGKAPKLLIYSVSSLQSGVPSRFSGSGSGTDFTLTISSLQPEDSATYYCQQANSLPPTFGGGTKVEIK
modifications: IRDye 700DX (IR700) attached via NHS ester; sites not stated; IRDye 700DX (IR700) attached via NHS ester; sites not stated; DAR 2.5 per antibody
notes: also called 1P9-IR700 conjugate; anti-PD-L1-IR700 conjugate
EC50 of photoimmunotherapy-induced killing of A431 cells (Cell Tox Green, 128 J/cm^2) [4]: 0.0124 mg/L

Kd [13]: 27 nM
koff [13]: 0.0097 s⁻¹
kon [13]: 360000 M⁻¹ s⁻¹
EC50 [14]: 5.76 mg/L
EC50 [15]: 0.0415 mg/L
EC50 (6xHis-tagged huPD-L1 [16]): 0.478 mg/L
EC50 (6xHis-tagged huPD-L1 [17]): 0.0399 mg/L
EC50 of luminescence (RLU), PD-1:PD-L1 Blockade Bioassay (PD-L1 aAPC/CHO-K1 cells with PD-1 Effector Jurkat NFAT-luciferase cells) [18]: 0.25 mg/L
Kd [19]: 18 nM
koff [19]: 0.0045 s⁻¹
kon [19]: 250000 M⁻¹ s⁻¹
EC50 (6xHis-tagged cyPD-L1 [20]): 0.0306 mg/L
EC50 [12]: 0.0457 mg/L
B2: 1P4 (antibody, V domains shown)
VH: QVQLVESGGGVVQPGRSLRLSCAASGFTFSNYGMHWVRQAPGKGLEWVSLILYDGSNKYYADSVKGRFTISRDNSKNTLYLQMNSLRAEDTAVYYCARDRVWLDVWGKGTTVTVSS
VL: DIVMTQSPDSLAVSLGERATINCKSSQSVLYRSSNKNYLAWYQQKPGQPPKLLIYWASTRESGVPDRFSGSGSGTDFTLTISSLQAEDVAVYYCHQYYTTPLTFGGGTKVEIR
notes: Recombinant full-length human antibody expressed in CHO K1 GS KO cells, with wild-type human Fc; also called anti-PD-L1 antibody 1P4; Unconj; 1P4
